Laboratory results taken from the Human Domainome abundance scans (Beltran et al. 2025).

B1: 3'-5' exoribonuclease 1, residues 65 to 114; numbered along this chain, Q8IV48 (parent)
chain: VYKEIAITNGCINRMSKEELRAKLSEFKLETRGVKDVLKKRLKNYYKKQK

Variants of: B1
Assay: abundance fitness (aPCA) (normalised: wild type 0, dead -1); higher = more abundant; growth selection in yeast, the domain comes from the species named
Conditions: Homo sapiens

Abundance fitness of substitutions, site by site:
L29: P -0.999 | H -0.974 | A -0.827 | W -0.694 | G -0.875 | N -0.827 | Y -0.874
K39: R -0.114 | P -0.979 | M -0.521 | A -0.36 | Q -0.398 | T -0.458 | H -1.11 | G -0.721
I5: E -0.044 | Y -0.029 | P -0.003 | T 0.066 | D 0.026 | V -0.037 | M 0.052 | F -0.065
I7: Q -0.141 | G -0.13 | M -0.016 | S -0.142 | D -0.171 | C -0.164 | R -0.178 | L 0.019
I12: Q -0.899 | V -0.152 | K -0.741 | T -0.457 | A -0.873 | C -0.721
V37: D -0.25 | S -0.136 | W -0.763 | G -0.639 | I -0.228 | H -0.695 | C -0.191 | T 0.01
E26: K -0.273 | W -0.406 | M -0.267 | G -0.24 | H -0.267 | C -0.31 | T -0.189
V34: E -0.553 | Q -0.241 | F -0.245 | H 0.054 | M -0.582 | I -0.064
K43: H -0.729 | R -0.366 | P -0.806 | F -0.755 | T -0.55 | D -0.737
N13: A -0.487 | D -0.259 | Y -0.437 | S -0.272 | F -0.961 | I -0.65
Y2: G 0.069 | V 0.021 | L -0.052 | H 0.01 | P 0.046 | D 0.1 | Q 0.076
F27: G -0.723 | N 0.007 | P -0.914 | C 0.065 | S -0.307
V1: W -0.102 | L -0.047 | I -0.025 | S -0.038 | F -0.104
S16: P -0.264 | T -0.01 | Q -0.54 | Y -0.461
K47: W -0.608 | H -0.409
R32: P -0.964 | E -0.572 | H -0.319 | V -0.471 | K -0.209 | Q -0.396 | T -0.292 | A -0.383
A6: H 0.022 | W -0.261 | G -0.084 | L -0.082 | F -0.078 | P 0.007
K40: P -0.951 | Y -0.7 | T -0.398 | G -0.777 | H -0.576 | F -0.992 | S -0.521 | N -0.319 | M -0.634 | A -0.427
L38: W -0.629 | N -0.95 | Q -0.874 | R -0.948 | K -0.828 | I -0.541 | S -0.458 | F -0.668 | E -0.933
K35: I -0.475 | W -0.815 | M -0.765 | D -0.772 | L -0.698 | H -0.709 | A -0.347 | C -0.58
T8: C -0.29 | F -0.472 | L -0.388 | E -0.24 | H -0.268 | G -0.215 | S -0.019
R21: G -0.804 | W -0.833 | T -0.473 | V -0.203 | M -0.449 | S -0.518 | N -0.787 | L -0.528 | D -0.844
G33: E -0.791 | K -0.93 | F -0.977 | Q -1.09 | A -0.842 | M -0.988 | N -0.991 | C -0.608 | T -1.06
G10: Y -0.238 | L -0.37 | W -0.401 | T -0.121 | H -0.18 | F -0.323 | Q -0.125 | S -0.146
